In test [1] the target is T1, Human nectin-4 ECD-6His (TNT-175) (human, UniProt Q96NY8 32-349).
T1 construct: the entry holds the extracellular domain with the C-terminal 6His tag
T1 sequence: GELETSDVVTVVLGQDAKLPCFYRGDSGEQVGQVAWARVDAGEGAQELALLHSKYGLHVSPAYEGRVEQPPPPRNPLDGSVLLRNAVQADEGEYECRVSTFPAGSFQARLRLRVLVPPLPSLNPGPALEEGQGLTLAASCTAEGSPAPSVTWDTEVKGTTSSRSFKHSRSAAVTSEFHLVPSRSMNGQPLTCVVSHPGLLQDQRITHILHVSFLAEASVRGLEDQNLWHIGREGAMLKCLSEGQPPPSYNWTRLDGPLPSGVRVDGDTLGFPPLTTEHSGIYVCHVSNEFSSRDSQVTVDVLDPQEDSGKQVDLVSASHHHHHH
Description: competition ELISA; nectin-4 ECD premixed with TNT207, captured by the coat antibody; % of signal without premix antibody. The procedure, abridged:
(§1)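 Plates coated overnight at 4° C with goat anti-mouse IgG (1 mg/mL), premix of nectin-4 ECD and competing antibody added for one hour. Bound ECD detected with rabbit anti-6×His HRP (1:4,000, 1 h, room temperature) and ABTS for 20 minutes. O.D. background-normalized, expressed as percent of no-premix control at lowest nectin-4 dilution.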
On the technique in general: An ELISA detects its analyte on a solid surface through an enzyme-linked reagent.

For test [2], the target named is T1, Human nectin-4 ECD-6His (TNT-175). Description: competition ELISA; nectin-4 ECD premixed with TNT208, captured by the coat antibody; % of signal without premix antibody. The procedure, abridged:
as §1

Test [3] shares this target. Description: competition ELISA; nectin-4 ECD premixed with TNT209, captured by the coat antibody; % of signal without premix antibody. In short, it runs like this: as §1
For test [4] the target is unchanged. Description: competition ELISA; nectin-4 ECD premixed with TNT212, captured by the coat antibody; % of signal without premix antibody. In short, it runs like this:
as §1

For test [5] the target is unchanged. Description: competition ELISA; nectin-4 ECD premixed with TNT206, captured by the coat antibody; % of signal without premix antibody. In short, it runs like this: as §1
Test [6] shares this target. Nature of the test: competition ELISA; nectin-4 ECD premixed with TNT201, captured by the coat antibody; % of signal without premix antibody. The procedure, abridged: as §1
For the next test, the target named is T2, human nectin-4 on cells (human, UniProt Q96NY8 32-510).
T2 construct: whole, on cells; also called PVRL4
T2 sequence (looked up): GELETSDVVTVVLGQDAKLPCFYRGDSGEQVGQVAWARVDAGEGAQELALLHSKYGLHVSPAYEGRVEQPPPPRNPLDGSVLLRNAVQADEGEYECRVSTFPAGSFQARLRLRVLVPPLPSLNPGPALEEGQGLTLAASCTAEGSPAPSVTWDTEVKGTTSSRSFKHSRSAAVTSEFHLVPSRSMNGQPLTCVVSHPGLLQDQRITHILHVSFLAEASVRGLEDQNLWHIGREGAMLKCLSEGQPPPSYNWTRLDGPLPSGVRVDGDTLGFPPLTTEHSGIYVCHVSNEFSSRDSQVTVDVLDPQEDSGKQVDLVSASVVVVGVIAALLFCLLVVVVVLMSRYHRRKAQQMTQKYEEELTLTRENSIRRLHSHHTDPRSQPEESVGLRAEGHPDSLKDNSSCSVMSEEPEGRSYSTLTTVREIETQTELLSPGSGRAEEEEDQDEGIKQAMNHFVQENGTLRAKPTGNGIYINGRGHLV
Description: flow cytometry MFI, MNK74 (nectin-4 positive) over AGS (negative). A general note: Flow cytometry measures light scatter and fluorescence of single cells or particles in a stream.

The target of test [7] is T1, Human nectin-4 ECD-6His (TNT-175). Nature of the test: competition ELISA; nectin-4 ECD premixed with TNT204, captured by the coat antibody; % of signal without premix antibody. In short, it runs like this:
as §1

Test [8] shares this target. Description: competition ELISA; nectin-4 ECD premixed with TNT203, captured by the coat antibody; % of signal without premix antibody. In short, it runs like this: as §1
Test [9] shares this target. Nature of the test: competition ELISA; nectin-4 ECD premixed with TNT211, captured by the coat antibody; % of signal without premix antibody. In short, it runs like this: as §1
The target is the same in test [10]. Description: competition ELISA; nectin-4 ECD premixed with TNT205, captured by the coat antibody; % of signal without premix antibody. The procedure, abridged: as §1
The target is the same in test [11]. Nature of the test: SPR ProteOn, mAb on protein A. As for the experimental part: Initial testing of binding of nectin-4 antibodies to nectin-4. […] Biotinylated protein A (15 μg/mL) was immobilized to the surface of an NLC chip. 30 nM of purified mAb supernatant was diluted in PBS-T and captured over the protein A surface. Serial dilutions of human nectin-4 were injected over the mAb-coated chips, and binding kinetics were determined. Chips were regenerated using 4:1 v/v of IgG elution butter/4M NaCl.

Test [12] shares this target. Nature of the test: competition ELISA; nectin-4 ECD premixed with TNT210, captured by the coat antibody; % of signal without premix antibody. The procedure, abridged:
as §1

Test [13] shares this target. Description: competition ELISA; nectin-4 ECD premixed with TNT202, captured by the coat antibody; % of signal without premix antibody. The procedure, abridged:
as §1

B1: TNT-197 (antibody, mouse IgG2a, kappa)
heavy: EVQLVQSGGGVVQPGRSLRLSCAASGFTFSSYAMHWVRQAPGKGLEWVAVISYDGSNKYYADSVKGRFTISRDNSKNTLYLQMNSLRAEDTAVYYCARATLQLWLPLFDYWGQGTLVTVSSAKTTAPSVYPLAPVCGDTTGSSVTLGCLVKGYFPEPVTLTWNSGSLSSGVHTFPAVLQSDLYTLSSSVTVTSSTWPSQSITCNVAHPASSTKVDKKIEPRGPTIKPCPPCKCPAPNLLGGPSVFIFPPKIKDVLMISLSPIVTCVVVDVSEDDPDVQISWFVNNVEVHTAQTQTHREDYNSTLRVVSALPIQHQDWMSGKEFKCKVNNKDLPAPIERTISKPKGSVRAPQVYVLPPPEEEMTKKQVTLTCMVTDFMPEDIYVEWTNNGKTELNYKNTEPVLDSDGSYFMYSKLRVEKKNWVERNSYSCSVVHEGLHNHHTTKSFSRTPGRPQGFGPP
light: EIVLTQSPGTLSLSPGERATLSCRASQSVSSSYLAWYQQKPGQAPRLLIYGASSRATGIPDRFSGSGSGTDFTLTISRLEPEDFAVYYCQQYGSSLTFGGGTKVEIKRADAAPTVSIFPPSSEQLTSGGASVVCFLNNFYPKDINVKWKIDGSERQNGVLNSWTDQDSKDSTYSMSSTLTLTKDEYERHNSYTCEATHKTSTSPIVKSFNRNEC
For B1, the “% of Positive” value in test [1] was found to be 3.4%; in test [2], 5.8%; in [3], 37.2%; in test [4], 2.7%; in [5] it was 14.3%; in test [6] it was 1.7%. Also, the “% of Positive” value in test [7] amounted to 6.7%; in [8] it was 39.7%; in test [9], 32.4%; in [10], 57.1%; in [12] it was 2.6%; in [13], 7.8%. For the same molecule, in the test with human nectin-4 on cells, the “Fold-change of binding to MNK74 compared to control AGS” value (from here on “Fold-change of binding to MNK74”) was 4.8 fold. The molecule also had a Kd in [11] of 4.28 nM. In test [11], this molecule gave a koff of 0.00334 s⁻¹. In test [11], this molecule yielded a kon of 780000 M⁻¹ s⁻¹.

B2: TNT-194 (antibody, mouse IgG2a, kappa)
heavy: EVQLVQSGAEVKKPGASVKVSCKASGYTFTSYDINWVRQAPGQGLEWMGGIIPIFGTANYAQKFQGRVTITADESTSTAYMELRSLRSEDTAVYYCASTAVAGFGIDYWGQGTLVTVSSAKTTAPSVYPLAPVCGDTTGSSVTLGCLVKGYFPEPVTLTWNSGSLSSGVHTFPAVLQSDLYTLSSSVTVTSSTWPSQSITCNVAHPASSTKVDKKIEPRGPTIKPCPPCKCPAPNLLGGPSVFIFPPKIKDVLMISLSPIVTCVVVDVSEDDPDVQISWFVNNVEVHTAQTQTHREDYNSTLRVVSALPIQHQDWMSGKEFKCKVNNKDLPAPIERTISKPKGSVRAPQVYVLPPPEEEMTKKQVTLTCMVTDFMPEDIYVEWTNNGKTELNYKNTEPVLDSDGSYFMYSKLRVEKKNWVERNSYSCSVVHEGLHNHHTTKSFSRTPGRPQGFGPP
light: DIQMTQSPSSLSASVGDRVTITCRASQGISNYLAWFQQKPGKAPKSLISAASSLQSGVPSRFSGSGSGTDFTLTISSLQPEDFATYYCLQHDSFPITFGGGTKLEIKRADAAPTVSIFPPSSEQLTSGGASVVCFLNNFYPKDINVKWKIDGSERQNGVLNSWTDQDSKDSTYSMSSTLTLTKDEYERHNSYTCEATHKTSTSPIVKSFNRNEC
B2: the “% of Positive” value in [1] is 18.4%; in test [2] it was 26.4%; in [3] it was 66.5%; in test [4], 21.2%; in test [5], 43.1%; in [6], 6.7%. Besides, the “% of Positive” value in test [7] turned out to be 18.7%; in test [8], 65.2%; in [9], 46.1%; in test [10] it was 75.3%; in [12], 11%; in test [13] it was 27.9%. Further, the “Fold-change of binding to MNK74” value with human nectin-4 on cells stood at 7 fold. Besides, the Kd in [11] was determined as 0.585 nM. Moreover, the koff in test [11] amounted to 0.0023 s⁻¹. Further, the kon in test [11] is 3.92e+06 M⁻¹ s⁻¹.

B3: TNT-195 (antibody, mouse IgG2a, kappa)
heavy: EVQLVQSGAEVKKPGSSVKVSCKASGGTFSSYAISWVRQAPGQGLEWMGGIIPIFGTANYAQKFQGRVTITADKSTSTAYMELSSLRSEDTAVYYCAAGYYYDSSGYYHQPYYFDYWGQGTLVTVSSAKTTAPSVYPLAPVCGDTTGSSVTLGCLVKGYFPEPVTLTWNSGSLSSGVHTFPAVLQSDLYTLSSSVTVTSSTWPSQSITCNVAHPASSTKVDKKIEPRGPTIKPCPPCKCPAPNLLGGPSVFIFPPKIKDVLMISLSPIVTCVVVDVSEDDPDVQISWFVNNVEVHTAQTQTHREDYNSTLRVVSALPIQHQDWMSGKEFKCKVNNKDLPAPIERTISKPKGSVRAPQVYVLPPPEEEMTKKQVTLTCMVTDFMPEDIYVEWTNNGKTELNYKNTEPVLDSDGSYFMYSKLRVEKKNWVERNSYSCSVVHEGLHNHHTTKSFSRTPGRPQGFGPP
light: DIQMTQSPSTLSASVGDRVTITCRASQGISNYLAWYQQKPGKAPKLLIYAASSLQSGVPSRFSGSGSGTDFTLTISSLQPEDFATYYCQQSYSTPLTFGGGTKVEIKRADAAPTVSIFPPSSEQLTSGGASVVCFLNNFYPKDINVKWKIDGSERQNGVLNSWTDQDSKDSTYSMSSTLTLTKDEYERHNSYTCEATHKTSTSPIVKSFNRNEC
As for B3, the “% of Positive” value came out at 18.3% in test [1]; 23.1% in [2]; 56.2% in test [3]; 20.7% in [4]; 35.8% in [5]; 6.6% in test [6]. For the same molecule, the “% of Positive” value stood at 15.2% in test [7]; 51.5% in test [8]; 46.9% in test [9]; 63.2% in test [10]; 16.3% in test [12]; 24.7% in test [13]. For the same molecule, the “Fold-change of binding to MNK74” value in the test with human nectin-4 on cells worked out at 6.4 fold. In test [11], this molecule displayed a Kd of 1.34 nM. This molecule also had a koff in test [11] of 0.00125 s⁻¹. The same molecule displayed a kon in test [11] of 930000 M⁻¹ s⁻¹.

A word on the Kd: it is a measure of binding affinity in units of concentration. What is called koff is a measure of how fast the partners let go of each other. Lower therefore signals a long-lived complex. A word on the kon: it is the rate constant with which the complex forms. The low end stands for slower complex formation, the high end for faster complex formation.

These data come from US20240382610A1 (TALLAC THERAPEUTICS, published 2024).
